Laboratory results published in the supplement of paper PMC9112550, “Optimization of the antimicrobial peptide Bac7 by deep mutational scanning” (BMC Biology, 2022).

System: Escherichia coli TOP10
Assay: shrunken log2 fold change of peptide-encoding DNA abundance (4.5 h post-induction vs induction); higher = less antimicrobial activity (less host growth inhibition)
Conditions: time post-induction: 4.5 h; library: site-saturation at positions 5, 18, 19, 20
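Further: peptides expressed intracellularly from a pBAD plasmid library in pooled LB shake-flask culture, induced with 0.3% L-arabinose, DNA abundance read by NGS, three biological replicates, DESeq2 with apeglm shrinkage.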

Sequence	shrunken log2 fold change
RRIRERPPRLPRPRPRPCNDPRP	-0.19
RRIRLRPPRLPRPRPRPIKNPRP	-0.317
RRIRARPPRLPRPRPRPAPKPRP	1
RRIRERPPRLPRPRPRPFINPRP	-0.991
RRIRTRPPRLPRPRPRPTYLPRP	-0.827
RRIRNRPPRLPRPRPRPINAPRP	-0.00965
RRIRVRPPRLPRPRPRPVQKPRP	0.0709
RRIRQRPPRLPRPRPRPPLVPRP	0.931
RRIRLRPPRLPRPRPRPVDLPRP	-0.418
RRIRIRPPRLPRPRPRPMSRPRP	-0.24
RRIRYRPPRLPRPRPRPAILPRP	-0.402
RRIRTRPPRLPRPRPRPCMWPRP	0.0746
RRIRLRPPRLPRPRPRPFRSPRP	-0.0185
RRIRKRPPRLPRPRPRPLYMPRP	-0.514
RRIRCRPPRLPRPRPRPPSCPRP	-0.0847
RRIRQRPPRLPRPRPRPEGVPRP	0.381
RRIRVRPPRLPRPRPRPVVHPRP	-0.0292
RRIRFRPPRLPRPRPRPVRYPRP	-0.0423
RRIRYRPPRLPRPRPRPWSRPRP	-0.205
RRIRVRPPRLPRPRPRPPIEPRP	-0.115
RRIRTRPPRLPRPRPRPLTMPRP	-0.27
RRIRWRPPRLPRPRPRPEPKPRP	0.393
RRIRTRPPRLPRPRPRPFRPPRP	0.0775
RRIRTRPPRLPRPRPRPHGSPRP	-0.01
RRIRNRPPRLPRPRPRPHVMPRP	-0.503

Sequence	shrunken log2 fold change
RRIRFRPPRLPRPRPRPLLAPRP	0.176
RRIRHRPPRLPRPRPRPKCRPRP	-0.163
RRIRCRPPRLPRPRPRPTGTPRP	0.0453
RRIRPRPPRLPRPRPRPDEPPRP	0.0641
RRIRRRPPRLPRPRPRPFLCPRP	0.219
RRIRLRPPRLPRPRPRPAFFPRP	0.406
RRIRKRPPRLPRPRPRPFVTPRP	-0.0435
RRIRQRPPRLPRPRPRPCEEPRP	-0.0216
RRIRERPPRLPRPRPRPDHTPRP	-0.0309
RRIRCRPPRLPRPRPRPGMAPRP	0.418
RRIRMRPPRLPRPRPRPYYDPRP	0.000459
RRIRVRPPRLPRPRPRPAMSPRP	-0.096
RRIRGRPPRLPRPRPRPFYIPRP	0.0551
RRIRYRPPRLPRPRPRPTNVPRP	-0.868
RRIRKRPPRLPRPRPRPMFRPRP	0.0113
RRIRDRPPRLPRPRPRPSTKPRP	0.116
RRIRHRPPRLPRPRPRPEFVPRP	0.02
RRIRERPPRLPRPRPRPQSKPRP	-0.769
RRIRWRPPRLPRPRPRPVYLPRP	-0.229
RRIRNRPPRLPRPRPRPAFKPRP	-0.0432
RRIRHRPPRLPRPRPRPYLKPRP	-0.298
RRIRDRPPRLPRPRPRPLTPPRP	0.128
RRIRKRPPRLPRPRPRPHFAPRP	0.336
RRIRPRPPRLPRPRPRPDEDPRP	0.00574
RRIRSRPPRLPRPRPRPGLRPRP	0.222

Sequence	shrunken log2 fold change
RRIRIRPPRLPRPRPRPARSPRP	0.0389
RRIRSRPPRLPRPRPRPNNDPRP	-0.503
RRIRTRPPRLPRPRPRPCVAPRP	0.192
RRIRKRPPRLPRPRPRPNAEPRP	0.531
RRIRKRPPRLPRPRPRPNGTPRP	-0.0678
RRIRMRPPRLPRPRPRPWPTPRP	0.675
RRIRYRPPRLPRPRPRPWHYPRP	-0.809
RRIRYRPPRLPRPRPRPNGEPRP	-0.0103
RRIRMRPPRLPRPRPRPEFTPRP	0.101
RRIRLRPPRLPRPRPRPRNIPRP	-0.424
RRIRGRPPRLPRPRPRPKWLPRP	0.749
RRIRMRPPRLPRPRPRPTWDPRP	0.762
RRIRYRPPRLPRPRPRPQQGPRP	-0.34
RRIRHRPPRLPRPRPRPHVMPRP	-0.185
RRIRARPPRLPRPRPRPGWEPRP	0.274
RRIRCRPPRLPRPRPRPYPIPRP	-0.198
RRIRHRPPRLPRPRPRPMWCPRP	-0.187
RRIRERPPRLPRPRPRPWQSPRP	-0.00865
RRIRYRPPRLPRPRPRPLDHPRP	-0.119
RRIRERPPRLPRPRPRPPDNPRP	0.197
RRIRGRPPRLPRPRPRPCHSPRP	0.0222
RRIRSRPPRLPRPRPRPWMAPRP	0.0303
RRIRSRPPRLPRPRPRPWPTPRP	0.219
RRIRHRPPRLPRPRPRPCAYPRP	-0.0102
RRIRCRPPRLPRPRPRPMNDPRP	-0.44

Sequence	shrunken log2 fold change
RRIRTRPPRLPRPRPRPPWWPRP	0.928
RRIRNRPPRLPRPRPRPPHIPRP	-0.311
RRIRCRPPRLPRPRPRPFRYPRP	-0.29
RRIRCRPPRLPRPRPRPYFMPRP	-0.91
RRIRWRPPRLPRPRPRPQAQPRP	0.00496
RRIRSRPPRLPRPRPRPPWMPRP	0.167
RRIRTRPPRLPRPRPRPGNKPRP	-0.0505
RRIRRRPPRLPRPRPRPLMYPRP	0.0279
RRIRTRPPRLPRPRPRPSSPPRP	-0.312
RRIRSRPPRLPRPRPRPRNLPRP	-0.322
RRIRIRPPRLPRPRPRPWVGPRP	-0.248
RRIRWRPPRLPRPRPRPHYYPRP	-0.581
RRIRVRPPRLPRPRPRPIDDPRP	-0.14
RRIRGRPPRLPRPRPRPYCFPRP	0.0329
RRIRNRPPRLPRPRPRPPGRPRP	0.769
RRIRPRPPRLPRPRPRPGQMPRP	-0.0125
RRIRWRPPRLPRPRPRPIKGPRP	-0.197
RRIRLRPPRLPRPRPRPSGAPRP	-0.0192
RRIRVRPPRLPRPRPRPVVDPRP	-0.0784
RRIRARPPRLPRPRPRPDMLPRP	-0.0619
RRIRWRPPRLPRPRPRPVQSPRP	0.0186
RRIRDRPPRLPRPRPRPWYCPRP	-0.137
RRIRKRPPRLPRPRPRPSLHPRP	0.0624
RRIRSRPPRLPRPRPRPVWVPRP	0.351
RRIRLRPPRLPRPRPRPHNWPRP	-0.0581

Sequence	shrunken log2 fold change
RRIRSRPPRLPRPRPRPPTAPRP	0.447
RRIRIRPPRLPRPRPRPYLVPRP	-0.289
RRIRCRPPRLPRPRPRPCDYPRP	-0.0812
RRIRARPPRLPRPRPRPITLPRP	-0.13
RRIRCRPPRLPRPRPRPWKGPRP	-0.0267
RRIRKRPPRLPRPRPRPTGNPRP	0.563
RRIRARPPRLPRPRPRPPDHPRP	0.683
RRIRARPPRLPRPRPRPSSYPRP	-0.342
RRIRSRPPRLPRPRPRPVKQPRP	0.0733
RRIRQRPPRLPRPRPRPCFVPRP	-0.0859
RRIRTRPPRLPRPRPRPMLKPRP	-0.106
RRIRDRPPRLPRPRPRPKLMPRP	-0.146
RRIRFRPPRLPRPRPRPIGDPRP	-0.033
RRIRIRPPRLPRPRPRPAYDPRP	-0.325
RRIRIRPPRLPRPRPRPMQLPRP	3.42
RRIRDRPPRLPRPRPRPVLPPRP	0.0231
RRIRQRPPRLPRPRPRPPHAPRP	0.322
RRIRWRPPRLPRPRPRPSQIPRP	-0.165
RRIRWRPPRLPRPRPRPFSEPRP	-0.186
RRIRVRPPRLPRPRPRPSEMPRP	0.0713
RRIRNRPPRLPRPRPRPSATPRP	-0.0839
RRIRNRPPRLPRPRPRPLAYPRP	-0.175
RRIRMRPPRLPRPRPRPIFVPRP	-0.111
RRIRVRPPRLPRPRPRPWCDPRP	-0.394
RRIRYRPPRLPRPRPRPTAGPRP	0.111
